Reference: patent US20250043302A1, “MUTATED HYDROXYPHENYLPYRUVATE DIOXYGENASE POLYPEPTIDE, AND CODING GENE AND USE THEREOF” (BEIJING DABEINONG BIOTECHNOLOGY CO., LTD., priority 2021, published 2025)

Key:
[1] = test system: Arabidopsis thaliana T1 plants; experiment: Isoxaflutole tolerance of transgenic Arabidopsis thaliana T1 plants (spray, bleached leaf area grade, damage score); assay type: in vivo; conditions: Table 11; for Classification and statistics of the grade of pesticide damage Grade 0: number of plants at grade 0; for Classification and statistics of the grade of pesticide damage Grade 1: number of plants at grade 1; for Classification and statistics of the grade of pesticide damage Grade 2: number of plants at grade 2; for Classification and statistics of the grade of pesticide damage Grade 3: number of plants at grade 3; for Scores: pesticide damage score;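 on Scores: Weighted damage index from 0 to 100 where higher means more damage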
From the text: (§1) T1 transformants were initially selected from the untransformed seeds using a glufosinate selection scheme. The Arabidopsis thaliana T1 plants (AsHPPD-02) into which the AsHPPD-02 nucleotide sequence was introduced, the Arabidopsis thaliana T1 plants (AsHPPDm-F372A-02) into which the AsHPPDm-F372A-02 nucleotide sequence was introduced, the Arabidopsis thaliana T1 plants (AsHPPDm-F383W-02) into which the AsHPPDm-F383W-02 nucleotide sequence was introduced, the Arabidopsis thaliana T1 plants (AsHPPDm-F372A-F383W-02) into which the AsHPPDm-F372A-F383W-02 nucleotide sequence was introduced, the Arabidopsis thaliana T1 plants (DBN11726N) into which the control recombinant expression vector DBN11726N was introduced, and the wild-type Arabidopsis thaliana plants (CK) (18 days after sowing) were sprayed respectively with topramezone at three concentrations (100 g ai/ha (four-fold field concentration, 4×), 200 g ai/ha (eight-fold field concentration, 8×), and 0 g ai/ha (water, 0×)), isoxaflutole at three concentrations (140 g ai/ha (two-fold field concentration, 2×), 280 g ai/ha (four-fold field concentration, 4×), and 0 g ai/ha (water, 0×)), and mesotrione at three concentrations (210 g ai/ha (two-fold field concentration, […]), 420 g ai/ha (four-fold field concentration, 4×), and 0 g ai/ha (water, 0×)), to determine the tolerance of Arabidopsis thaliana to the herbicides. The degree of damage caused by the herbicide was measured for each plant according to the proportion of bleached leaf area (the proportion of bleached leaf area=bleached leaf area/total leaf area×100%) 7 days after spraying (7 DAT): the case where there is basically no bleached phenotype is defined as grade 0, the case where the proportion of bleached leaf area is less than 50% is defined as grade 1, the case where the proportion of bleached leaf area is more than 50% is defined as grade 2, and the case where the proportion of bleached leaf area is 100% grade is defined as grade 3.
(§2) According to the method as described above in point 6 of Example 1, the aforementioned Arabidopsis thaliana T1 plants and wild-type Arabidopsis thaliana plants (CK) (18 days after sowing) were sprayed respectively with topramezone at three concentrations (25 g ai/ha (one-fold field concentration, 1×). 100 g ai/ha (four-fold field concentration, 4×), and 0 g ai/ha (water, 0×)), isoxaflutole at three concentrations (35 g ai/ha (half-fold field concentration, 0.5×). 70 g ai/ha (one-fold field concentration, 1×), and 0 g ai/ha (water, 0×)), and mesotrione at three concentrations (52.5 g ai/ha (half-fold field concentration, 0.5×), 105 g ai/ha (one-fold field concentration, 1×), and 0 g ai/ha (water, 0×)) to detect the tolerance of Arabidopsis thaliana to the herbicides.
(§3) According to the method as described above in point 6 of Example 1, the aforementioned Arabidopsis thaliana T1 plants and wild-type Arabidopsis thaliana plants (CK) (18 days after sowing) were sprayed with topramezone at three different concentrations (i.e., 100 g ai/ha (four-fold field concentration, 4×), 200 g ai/ha (eight-fold field concentration, 8×) and 0 g ai/ha (water, 0×)), isoxaflutole at three different concentrations (i.e., 140 g ai/ha (two-fold field concentration, 2×), 280 g ai/ha (four-fold field concentration, 4×) and 0 g ai/ha (water, 0×)), and mesotrione at three different concentrations (i.e., 210 g ai/ha (two-fold field concentration, 2×), 420 g ai/ha (four-fold field concentration, 4×) and 0 g ai/ha (water, 0×)) respectively to detect the herbicide tolerance of Arabidopsis thaliana. […]

[2] = test system: Arabidopsis thaliana T1 plants; experiment: Mesotrione tolerance of transgenic Arabidopsis thaliana T1 plants (spray, bleached leaf area grade, damage score); assay type: in vivo; parameters: Scores: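 damage score 0-100 computed as Σ(N×S)/(T×M)×100 over grades 0-3 with higher meaning more damage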; conditions: Table 12; for Classification and statistics of the grade of pesticide damage Grade 0: number of plants at grade 0; for Classification and statistics of the grade of pesticide damage Grade 1: number of plants at grade 1; for Classification and statistics of the grade of pesticide damage Grade 2: number of plants at grade 2; for Classification and statistics of the grade of pesticide damage Grade 3: number of plants at grade 3; for Scores: pesticide damage score
From the text: as §1, §2, §3

B1: AsHPPDm-A107-F372A-02: nucleotide sequence encoding Avena sativa HPPD with A107 deletion+F372A; vector DBN11778 (nucleic acid)
DNA: ATGCCACCTACTCCAGCTACAGCTACTGGTGCTGCTGCTGCTGCCGTTACTCCTGAGCACGCTGCCAGGTCATTCCCCAGGGTGGTTCGCGTGAACCCCAGATCTGATAGGTTCCCAGTTCTGAGCTTCCACCATGTTGAGCTGTGGTGCGCTGATGCTGCTTCTGCTGCTGGCAGGTTCTCTTTCGCTCTTGGTGCTCCACTCGCTGCTAGATCTGATCTGTCTACAGGAAATAGCGCTCATGCCTCACTCCTGCTTCGCTCAGGTGCTTTGGCCTTCCTCTTCACCGCTCCATATGCTCCCCCACCTCAGGAGGCTACTGCTGCTGCTACAGCCTCCATTCCAAGCTTCTCAGCTGATGCCGCTAGAACCTTCGCTGCTGCTCATGGACTTGCCGTGAGGTCTGTTGGTGTTCGCGTGGCTGATGCTGCTGAGGCTTTCAGAGTTTCCGTTGCCGGCGGAGCTAGGCCAGCTTTCGCTCCTGCTGATTTGGGACATGGTTTCGGCCTGGCTGAGGTTGAGCTTTACGGTGACGTGGTTCTCCGCTTCGTGTCTTACCCAGATGAGACTGACCTGCCTTTCCTTCCCGGCTTCGAGAGAGTTTCCTCTCCTGGTGCCGTGGATTACGGCCTGACAAGGTTCGACCACGTGGTTGGAAACGTTCCCGAGATGGCTCCAGTGATCGATTACATGAAGGGCTTCCTTGGATTCCATGAGTTCGCCGAGTTCACTGCTGAGGACGTGGGAACCACTGAGTCCGGTTTGAACTCTGTGGTTCTCGCCAACAATTCTGAGGCTGTTTTGCTCCCTCTGAATGAGCCTGTGCATGGAACCAAGAGGAGAAGCCAGATTCAAACTTACCTGGAGTACCACGGTGGCCCTGGAGTTCAGCATATCGCCCTTGCTTCTAATGATGTGTTGCGCACACTCAGAGAGATGCGCGCCAGAACCCCCATGGGAGGTTTCGAGTTCATGGCCCCACCACAGGCTAAGTACTACGAGGGCGTTAGAAGGATTGCTGGAGACGTGTTGAGCGAGGAGCAGATCAAGGAGTGCCAAGAGCTGGGTGTTCTTGTGGATAGGGATGACCAGGGCGTTCTGCTTCAAATTGCCACTAAGCCAGTGGGCGACCGCCCTACATTCTTCCTTGAGATGATTCAAAGAATCGGCTGCATGGAGAAGGATGAGGTTGGACAGGAGTACCAAAAGGGCGGATGCGGTGGCTTCGGAAAGGGTAACTTCAGCGAGTTGTTCAAGTCAATCGAGGACTACGAGAAGAGCCTCGAGGTGAAGCAGTCAGTGGTTGCCCAAAAGTCCTGA
modifications: AsHPPDm-A107-F372A-02 Nucleotide Sequence
notes: vector DBN11778
- Resistance evaluation ([1]; isoxaflutole 140 g ai/ha (2×)): Moderately
- Classification and statistics of the grade of pesticide damage Grade 0 ([1]; isoxaflutole 140 g ai/ha (2×)): 5
- Classification and statistics of the grade of pesticide damage Grade 1 ([1]; isoxaflutole 140 g ai/ha (2×)): 7
- Classification and statistics of the grade of pesticide damage Grade 2 ([1]; isoxaflutole 140 g ai/ha (2×)): 4
- Classification and statistics of the grade of pesticide damage Grade 3 ([1]; isoxaflutole 140 g ai/ha (2×)): 0
- Scores ([1]; isoxaflutole 140 g ai/ha (2×)): 31
- Resistance evaluation ([1]; isoxaflutole 280 g ai/ha (4×)): Poorly resistant
- Classification and statistics of the grade of pesticide damage Grade 0 ([1]; isoxaflutole 280 g ai/ha (4×)): 0
- Classification and statistics of the grade of pesticide damage Grade 1 ([1]; isoxaflutole 280 g ai/ha (4×)): 1
- Classification and statistics of the grade of pesticide damage Grade 2 ([1]; isoxaflutole 280 g ai/ha (4×)): 15
- Classification and statistics of the grade of pesticide damage Grade 3 ([1]; isoxaflutole 280 g ai/ha (4×)): 0
- Scores ([1]; isoxaflutole 280 g ai/ha (4×)): 65
- Resistance evaluation ([2]; mesotrione 210 g ai/ha (2×)): Moderately
- Classification and statistics of the grade of pesticide damage Grade 0 ([2]; mesotrione 210 g ai/ha (2×)): 6
- Classification and statistics of the grade of pesticide damage Grade 1 ([2]; mesotrione 210 g ai/ha (2×)): 7
- Classification and statistics of the grade of pesticide damage Grade 2 ([2]; mesotrione 210 g ai/ha (2×)): 1
- Classification and statistics of the grade of pesticide damage Grade 3 ([2]; mesotrione 210 g ai/ha (2×)): 2
- Scores ([2]; mesotrione 210 g ai/ha (2×)): 31
- Resistance evaluation ([2]; mesotrione 420 g ai/ha (4×)): Poorly resistant
- Classification and statistics of the grade of pesticide damage Grade 0 ([2]; mesotrione 420 g ai/ha (4×)): 1
- Classification and statistics of the grade of pesticide damage Grade 1 ([2]; mesotrione 420 g ai/ha (4×)): 7
- Classification and statistics of the grade of pesticide damage Grade 2 ([2]; mesotrione 420 g ai/ha (4×)): 8
- Classification and statistics of the grade of pesticide damage Grade 3 ([2]; mesotrione 420 g ai/ha (4×)): 0
- Scores ([2]; mesotrione 420 g ai/ha (4×)): 48
